From publication PMC10702826 (EMBO Reports, 2023)
Where a chain is given by its changes, count along the chain named. Each block holds one molecule with its values, some of them ahead of it. Where no end group is shown, it is not given here.

How the values were obtained:
[1] = molecular target: charged UFC1 (UFC1~UFM1): isopeptide‐linked UFC1 T106S/C116K ‐ Strep‐tagged UFM1 covalent complex (UniProt Q9Y3C8); assay: ITC
[2] = molecular target: T1, UFC1 (E2), wild type, uncharged (UniProt Q9Y3C8 1-167); assay: NMR titration
T1 sequence: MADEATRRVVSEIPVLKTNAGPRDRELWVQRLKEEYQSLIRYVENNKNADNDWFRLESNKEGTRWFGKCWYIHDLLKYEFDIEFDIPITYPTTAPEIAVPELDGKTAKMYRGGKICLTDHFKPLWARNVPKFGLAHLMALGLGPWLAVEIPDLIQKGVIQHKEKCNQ

UFC1 K47E = molecular target: T2, UFC1 K47E (UniProt Q9Y3C8 1-167, K47E); assay: ITC
T2 sequence: T1 sequence with K47E

[3] = molecular target: T1, UFC1 (E2), wild type, uncharged; assay: ITC

Kd [1]: 0.23 µM
Molecule: DDRGK1ext‐UFL1 extended fusion protein (DDRGK1 87–314 ‐ UFL1 1–200) (from UniProt Q96HY6 87-314; O94874 1-200)

Kd [1]: 2.57 µM
Molecule: DDRGK1‐UFL1 fusion protein (DDRGK1 207–314 ‐ UFL1 1–200) (from UniProt Q96HY6;O94874)

binding result [2]: binds
B1: UBA5 C‐terminus (UBA5 347–404) (domain or fragment)
chain: SEVSEEELKNFSGPVPDLPEGITVAYTIPKKQEDSVTELTVEDSGESLEDLMAKMKNM
modifications: also: uniformly 15N-labelled

Kd (UFC1 K47E): 33.8 µM
Kd [3]: 2.3 µM
B2: DDRGK1‐UFL1 fusion protein (DDRGK1 207–314 ‐ UFL1 1–200) (other)
chain: MTEEQSQSFLTEFINYIKQSKVVLLEDLASQVGLRTQDTINRIQDLLAEGTITGVIDDRGKFIYITPEELAAVANFIRQRGRVSIAELAQASNSLIAWGRESPAQAPAMADAWEEIRRLAADFQRAQFAEATQRLSERNCIEIVNKLIAQKQLEVVHTLDGKEYITPAQISKEMRDELHVRGGRVNIVDLQQVINVDLIHIENRIGDIIKSEKHVQLVLGQLIDENYLDRLAEEVNDKLQESGQVTISELCKTYDLPGNFLTQALTQRLGRIISGHIDLDNRGVIFTEAFVARHKARIRGLFSAITRP
